B1: H183/L072 VH A56T (antibody, name in Kabat numbering, V domains shown)
VH: QVQLVESGGGLVQPGRSLRLSCAASGFTFSNAWMHWVRQAPGKGLEWVAQIKDKGNAYTAYYAPSVKGRFTISRDDSKNSIYLQMNSLKTEDTAVYYCHYVHYASASTVLPAFGVDAWGQGTTVTVSS
VL: DIVMTQSPLSLPVTPGEPASISCQASQELVHMNRNTYLHWYQQKPGQAPRLLIYKVSNRFPGVPDRFSGSGSGTDFTLKISRVEAEDVGVYYCAQGTSVPFTFGQGTKLEIK
B2: H183/L072 VH A60L (antibody, name in Kabat numbering, V domains shown)
VH: B1 VH with T59A, A63L
VL: B1 VL
B3: H183/L072 VH A60E (antibody, name in Kabat numbering, V domains shown)
VH: B1 VH with T59A, A63E
VL: B1 VL
B4: H183/L072 VH A57M (antibody, name in Kabat numbering, V domains shown)
VH: B1 VH with T59A, A60M
VL: B1 VL
B5: H183/L072 VH A60W (antibody, name in Kabat numbering, V domains shown)
VH: B1 VH with T59A, A63W
VL: B1 VL
B6: H183/L072 VH A60I (antibody, name in Kabat numbering, V domains shown)
VH: B1 VH with T59A, A63I
VL: B1 VL
B7: H183/L072 VH A98I (antibody, name in Kabat numbering, V domains shown)
VH: B1 VH with T59A, A104I
VL: B1 VL
B8: H183/L072 VH A60P (antibody, name in Kabat numbering, V domains shown)
VH: B1 VH with T59A, A63P
VL: B1 VL
B9: H183/L072 VH A57N (antibody, name in Kabat numbering, V domains shown)
VH: B1 VH with T59A, A60N
VL: B1 VL
B10: H183/L072 VH A60T (antibody, name in Kabat numbering, V domains shown)
VH: B1 VH with T59A, A63T
VL: B1 VL
B11: H183/L072 VH A57S (antibody, name in Kabat numbering, V domains shown)
VH: B1 VH with T59A, A60S
VL: B1 VL
B12: H183/L072 VH A57D (antibody, name in Kabat numbering, V domains shown)
VH: B1 VH with T59A, A60D
VL: B1 VL
B13: H183/L072 VH A57Y (antibody, name in Kabat numbering, V domains shown)
VH: B1 VH with T59A, A60Y
VL: B1 VL
B14: H183/L072 VH A60R (antibody, name in Kabat numbering, V domains shown)
VH: B1 VH with T59A, A63R
VL: B1 VL
B15: H183/L072 VH A60Y (antibody, name in Kabat numbering, V domains shown)
VH: B1 VH with T59A, A63Y
VL: B1 VL
B16: H183/L072 VH A56V (antibody, name in Kabat numbering, V domains shown)
VH: B1 VH with T59V
VL: B1 VL
B17: H183/L072 VH A56Y (antibody, name in Kabat numbering, V domains shown)
VH: B1 VH with T59Y
VL: B1 VL
B18: H183/L072 VH A57V (antibody, name in Kabat numbering, V domains shown)
VH: B1 VH with T59A, A60V
VL: B1 VL
B19: H183/L072 VH A60M (antibody, name in Kabat numbering, V domains shown)
VH: B1 VH with T59A, A63M
VL: B1 VL
B20: H183/L072 VH A56W (antibody, name in Kabat numbering, V domains shown)
VH: B1 VH with T59W
VL: B1 VL
B21: H183/L072 VH A100L (antibody, name in Kabat numbering, V domains shown)
VH: B1 VH with T59A, A106L
VL: B1 VL
B22: H183/L072 VH A57T (antibody, name in Kabat numbering, V domains shown)
VH: B1 VH with T59A, A60T
VL: B1 VL
B23: H183/L072 VH A100I (antibody, name in Kabat numbering, V domains shown)
VH: B1 VH with T59A, A106I
VL: B1 VL
B24: H183/L072 VH A60S (antibody, name in Kabat numbering, V domains shown)
VH: B1 VH with T59A, A63S
VL: B1 VL
B25: H183/L072 VH A57I (antibody, name in Kabat numbering, V domains shown)
VH: B1 VH with T59A, A60I
VL: B1 VL
B26: H183/L072 VH A98L (antibody, name in Kabat numbering, V domains shown)
VH: B1 VH with T59A, A104L
VL: B1 VL
B27: H183/L072 VH A57Q (antibody, name in Kabat numbering, V domains shown)
VH: B1 VH with T59A, A60Q
VL: B1 VL
B28: H183/L072 VH A60G (antibody, name in Kabat numbering, V domains shown)
VH: B1 VH with T59A, A63G
VL: B1 VL
B29: H183/L072 VH A60Q (antibody, name in Kabat numbering, V domains shown)
VH: B1 VH with T59A, A63Q
VL: B1 VL
B30: H183/L072 VH A60N (antibody, name in Kabat numbering, V domains shown)
VH: B1 VH with T59A, A63N
VL: B1 VL
B31: H183/L072 VH A60K (antibody, name in Kabat numbering, V domains shown)
VH: B1 VH with T59A, A63K
VL: B1 VL
B32: H183/L072 VH A60D (antibody, name in Kabat numbering, V domains shown)
VH: B1 VH with T59A, A63D
VL: B1 VL
B33: H183/L072 VH A60H (antibody, name in Kabat numbering, V domains shown)
VH: B1 VH with T59A, A63H
VL: B1 VL
B34: H183/L072 VH A57K (antibody, name in Kabat numbering, V domains shown)
VH: B1 VH with T59A, A60K
VL: B1 VL
B35: H183/L072 VH A57G (antibody, name in Kabat numbering, V domains shown)
VH: B1 VH with T59A, A60G
VL: B1 VL
B36: H183/L072 VH A57E (antibody, name in Kabat numbering, V domains shown)
VH: B1 VH with T59A, A60E
VL: B1 VL
B37: H183/L072 VH A57H (antibody, name in Kabat numbering, V domains shown)
VH: B1 VH with T59A, A60H
VL: B1 VL
B38: H183/L072 VH A98P (antibody, name in Kabat numbering, V domains shown)
VH: B1 VH with T59A, A104P
VL: B1 VL
B39: H183/L072 VH A60F (antibody, name in Kabat numbering, V domains shown)
VH: B1 VH with T59A, A63F
VL: B1 VL
B40: H183/L072 VH A57P (antibody, name in Kabat numbering, V domains shown)
VH: B1 VH with T59A, A60P
VL: B1 VL
B41: H183/L072 VH A57F (antibody, name in Kabat numbering, V domains shown)
VH: B1 VH with T59A, A60F
VL: B1 VL
B42: H183/L072 VH A60V (antibody, name in Kabat numbering, V domains shown)
VH: B1 VH with T59A, A63V
VL: B1 VL
B43: H183/L072 VH A98M (antibody, name in Kabat numbering, V domains shown)
VH: B1 VH with T59A, A104M
VL: B1 VL
B44: H183/L072 VH A57R (antibody, name in Kabat numbering, V domains shown)
VH: B1 VH with T59A, A60R
VL: B1 VL

Substitutions are numbered along the chain they refer to. Names and notes keep the numbering of the source.

T1 sequence (chain, as listed by the source limits assumed): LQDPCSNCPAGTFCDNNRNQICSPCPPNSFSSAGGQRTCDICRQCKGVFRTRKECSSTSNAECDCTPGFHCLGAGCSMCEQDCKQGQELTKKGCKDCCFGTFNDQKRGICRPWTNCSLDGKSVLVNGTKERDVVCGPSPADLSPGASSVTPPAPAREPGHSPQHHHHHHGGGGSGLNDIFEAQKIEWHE

This assay concerns the target T1, Human CD137 ECD (human).
T1 construct: also called 4-1BB
Put plainly: single mutant vs template dBBDu183H.
Take B1: the “fold change of affinity” value is 0.4 fold.
Turning to B2, the “fold change of affinity” value was determined as 1.1 fold.
As to B3, the “fold change of affinity” value turned out to be 0.8 fold.
With B4, the “fold change of affinity” value was found to be 0.7 fold.
For B5, the “fold change of affinity” value was determined as 0.9 fold.
As for B6, the “fold change of affinity” value was found to be 0.7 fold.
The result for B7 reads 0 fold; that for B8, 0.1 fold.
The result for B9 reads 0.3 fold.
With B10, the “fold change of affinity” value stood at 1.3 fold.
As for B11, the “fold change of affinity” value was determined as 0.8 fold.
Regarding B12, the “fold change of affinity” value was determined as 1.2 fold.
With B13, the “fold change of affinity” value is 0 fold.
The same measure for B14: 1.2 fold; for B15: 1.2 fold; for B16: 0.2 fold.
The result for B17 reads 0.3 fold; that for B18, 0.5 fold; that for B19, 1 fold.
In the case of B20, the “fold change of affinity” value is 0.3 fold.
In the case of B21, the “fold change of affinity” value was found to be 0 fold.
As for B22, the “fold change of affinity” value stood at 0.6 fold.
For the molecule B23, the “fold change of affinity” value was 0 fold.
The same measure for B24: 1 fold; for B25: 0.1 fold; for B26: 0 fold.
The result for B27 reads 0.9 fold; that for B28, 0.8 fold; that for B29, 1.1 fold.
The result for B30 reads 1.3 fold; that for B31, 1.1 fold.
For the molecule B32, the “fold change of affinity” value was 0.6 fold.
Take B33: the “fold change of affinity” value was found to be 1.3 fold.
Turning to B34, the “fold change of affinity” value was 0.9 fold.
For B35, the “fold change of affinity” value stood at 0.9 fold.
As to B36, the “fold change of affinity” value was 0.9 fold.
With B37, the “fold change of affinity” value is 0.5 fold.
As for B38, the “fold change of affinity” value stood at 0 fold.
On to B39, for which the “fold change of affinity” value was determined as 1.2 fold.
For the molecule B40, the “fold change of affinity” value was 1 fold.
Regarding B41, the “fold change of affinity” value amounted to 0.1 fold.
The same measure for B42: 0.9 fold.
B43: the “fold change of affinity” value was found to be 0 fold.
Consider B44, for which the “fold change of affinity” value turned out to be 0.5 fold.
